The subject of data set [1] is T1, HBV 11-12L.1090QE Linker1923(1/2) meganuclease (synthetic (I-CreI derived)).
T1 sequence: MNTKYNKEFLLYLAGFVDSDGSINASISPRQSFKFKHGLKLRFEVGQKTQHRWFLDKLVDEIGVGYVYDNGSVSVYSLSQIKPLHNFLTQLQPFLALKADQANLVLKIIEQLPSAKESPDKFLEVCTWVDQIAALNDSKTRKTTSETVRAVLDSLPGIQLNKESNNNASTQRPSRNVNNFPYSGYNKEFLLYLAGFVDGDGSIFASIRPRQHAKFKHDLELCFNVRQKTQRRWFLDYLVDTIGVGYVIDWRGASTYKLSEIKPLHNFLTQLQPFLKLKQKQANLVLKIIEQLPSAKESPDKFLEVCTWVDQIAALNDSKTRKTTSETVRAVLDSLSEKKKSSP
Briefly: cell_activity. As to conditions: off-target, HepG2-sAg, 100 ng mRNA, below LOD; 0.2% in naive PHH at 500 ng.

Data set [2] deals with T2, HBV 11-12L.1090QQ Linker1923(1/2) meganuclease (synthetic (I-CreI derived)).
T2 sequence: T1 sequence with E260Q
Briefly: cell_activity. The settings on record: off-target, HepG2-sAg, 100 ng mRNA; on-target about 60%.

For data set [3], the system named is T3, HBV 11-12L.1090QQ Linker1 meganuclease (synthetic (I-CreI derived, Chlamydomonas reinhardtii)).
T3 sequence: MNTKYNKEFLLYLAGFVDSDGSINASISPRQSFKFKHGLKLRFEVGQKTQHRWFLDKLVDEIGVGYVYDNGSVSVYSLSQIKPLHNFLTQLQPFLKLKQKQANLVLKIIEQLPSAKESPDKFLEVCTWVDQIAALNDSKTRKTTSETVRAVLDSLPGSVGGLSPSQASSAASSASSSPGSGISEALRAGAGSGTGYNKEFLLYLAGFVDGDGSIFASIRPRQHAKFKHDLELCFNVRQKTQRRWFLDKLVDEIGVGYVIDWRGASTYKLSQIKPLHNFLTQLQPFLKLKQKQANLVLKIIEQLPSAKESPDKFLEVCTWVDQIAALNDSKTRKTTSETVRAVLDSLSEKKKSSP
Briefly: cell_activity. As to conditions: off-target, HepG2-sAg, 100 ng mRNA; on-target about 60%.

Data set [4] concerns the target T4, HBV 11-12L.1090QQ Linker1923(1/2) meganuclease (synthetic (I-CreI derived)).
T4 chain: T1 sequence with E260Q
Description: cell_activity; indel formation in HepG2-sAg, day 2; EC90 4.93 ng. As to conditions: tags: SV40 NLS (N- and C-terminal in pRNA8), mRNA-delivered.

The target in data set [5] is T5, HBV 11-12L.1090QE Linker1923(1/2) meganuclease (synthetic (I-CreI derived)).
T5 chain: T1 sequence
Briefly: cell_activity; indel formation in HepG2-sAg, day 2; EC90 23.93 ng. The settings on record: tags: SV40 NLS (N- and C-terminal in pRNA8), mRNA-delivered.

Where a chain is given by its changes, count along the chain named.

On to top off-target site Chr17:17242769, for which the activity was less than 0.2 % editing in data set [1], 2 % editing in data set [2] and 0.5 % editing in data set [3].

B1: HBV 11-12 recognition sequence (dsDNA)
DNA 1: TGCCGATCCATACTGCGGAACT
DNA 2: AGTTCCGCAGTATGGATCGGCA
As to B1, the results for the EC50 in data set [4] and in data set [5] were 0.26 ng mRNA and 2.3 ng mRNA, respectively.

(Values after patent publication US20250346877, “[…] MEGANUCLEASES HAVING […] FOR A RECOGNITION SEQUENCE IN THE […] B VIRUS GENOME” (Precision BioSciences, Inc., published 2025).)
